Source: patent US20170143843A1 (Genentech, published 2017)

Assays:
human factor D [1] = molecular target: T1, human factor D (human, UniProt P00746 26-253); experiment: cell-based or functional assay
human factor D [2] = molecular target: T1, human factor D; experiment: cell-based or functional assay; remark: listed apart in the source
human factor D [3] = molecular target: T1, human factor D; experiment: SPR Biacore T200, Fab captured by anti-huFab, human fD injected, 25 C
Experimental: Antibody Fab fragments were immobilized on a Series S CM5 sensor chip using the anti-huFab capture kit (GE healthcare Cat. #28-9583-25) following a protocol described by the manufacturer. Kinetics of binding were calculated from sensorgrams recorded for injection of 60 μL aliquots of solutions of human factor D varied in concentration from 0.39 nM to 25 nM in 2-fold increments. The flow rate was 30 μL/minute, the running buffer was HBS-P+, the temperature of analysis was 25° C., real-time reference cell subtraction was employed, and dissociation following factor D injection was followed for 10 minutes. After subtraction of the sensorgram observed for injection of running buffer, data were analyzed according to a 1:1 model using BiaEval software v4.1 (GE Healthcare) to extract the kinetics and affinity constants.

human factor D [4] = molecular target: T1, human factor D; experiment: cell-based or functional assay; remark: listed apart in the source
human factor D [5] = molecular target: T1, human factor D; experiment: SPR total binding to fD over time; Fab 100 mg/mL in PBS, 37 C, 10 weeks (FIG. 2B)
human factor D [6] = molecular target: T1, human factor D; experiment: SPR total binding to fD over time; Fab 10 mg/mL in pH 5.5 buffer (FIG. 2A), one month

T1 sequence (P00746 26-253 limits assumed): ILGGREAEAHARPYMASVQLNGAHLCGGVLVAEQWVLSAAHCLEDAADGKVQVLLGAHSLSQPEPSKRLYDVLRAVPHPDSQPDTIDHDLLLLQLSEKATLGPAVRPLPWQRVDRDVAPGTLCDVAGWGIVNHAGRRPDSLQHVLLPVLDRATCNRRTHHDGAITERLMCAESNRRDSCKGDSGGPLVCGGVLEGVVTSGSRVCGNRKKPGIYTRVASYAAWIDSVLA

B1: AFD.v14.C+TP octamer (Cys-modified AFD.v14-8ARM (TP)-PEG-MAL conjugate) (other)
light: DIQVTQSPSSLSASVGDRVTITCITSTSIESDMNWYQQKPGKVPKLLISGGNTLRPGVPSRFSGSGSGTDFTLTISSLQPEDVATYYCLQSDSLPYTFGQGTKVEIKRTVAAPSVFIFPPSDEQLKSGTASVVCLLNNFYPREAKVQWKVDNALQSGNSQESVTEQDSKDSTYSLSSTLTLSKADYEKHKVYACEVTHQGLSSPVTKSFNRGEC
heavy: EVQLVQSGPELKKPGASVKVSCKASGYTFTNYGMNWVRQAPGQGLEWMGWINTYTGETTYAEDFKGRFVFSLDTSVSTAYLQISSLKAEDTAVYYCEREGGVSNWGQGTLVTVSSASTKGPSVFPLAPSSKSTSGGTAALGCLVKDYFPEPVTVSWNSGALTSGVHTFPAVLQSSGLYSLSSVVTVPSSSLGTQTYICNVNHKPSNTKVDKKVEPKSCDKTHTC
modifications: C-terminal Cys linked through maleimide to one arm of a 40,000 MW eight-armed PEG with tripentaerythritol (TP) core (8ARM (TP)-PEG-MAL, JenKem)
- Average IC50 fB Activation (pM), TR-FRET, 125 pM fD; AFD.v14 TP octamer (CEX pool) (human factor D [1]): 77 pM
- Average IC50 fB Activation (pM), TR-FRET, 125 pM fD; AFD.v14 TP octamer (S200 pool) (human factor D [1]): 104 pM

B2: AFD.v8 tetramer (AFD.v8.C conjugated to Sunbright PTE-400MA four-armed PEG) (other)
light: DIQVTQSPSSLSASVGDRVTITCITSTSIESDMNWYQQKPGKVPKLLISGGNTLRPGVPSRFSGSGSGTDFTLTISSLQPEDVATYYCLQSDSLPYTFGQGTKVEIKRTVAAPSVFIFPPSDEQLKSGTASVVCLLNNFYPREAKVQWKVDNALQSGNSQESVTEQDSKDSTYSLSSTLTLSKADYEKHKVYACEVTHQGLSSPVTKSFNRGEC
heavy: EVQLVQSGPELKKPGASVKVSCKASGYTFTNYGMNWVRQAPGQGLEWMGWINTYTGETTYAEDFKGRFVFSLDTSVSTAYLQISSLKAEDTAVYYCEREGGVNNWGQGTLVTVSSASTKGPSVFPLAPSSKSTSGGTAALGCLVKDYFPEPVTVSWNSGALTSGVHTFPAVLQSSGLYSLSSVVTVPSSSLGTQTYICNVNHKPSNTKVDKKVEPKSCDKTHTC
modifications: C-terminal Cys linked through maleimide to one arm of a 40,000 MW four-armed PEG (Sunbright PTE-400MA)
- Average IC50 fB Activation (pM), TR-FRET, 50 pM fD (human factor D [2]): 11 pM

B3: AFD.v14 tetramer (AFD.v14.C conjugated to Sunbright PTE-400MA four-armed PEG) (other)
light: DIQVTQSPSSLSASVGDRVTITCITSTSIESDMNWYQQKPGKVPKLLISGGNTLRPGVPSRFSGSGSGTDFTLTISSLQPEDVATYYCLQSDSLPYTFGQGTKVEIKRTVAAPSVFIFPPSDEQLKSGTASVVCLLNNFYPREAKVQWKVDNALQSGNSQESVTEQDSKDSTYSLSSTLTLSKADYEKHKVYACEVTHQGLSSPVTKSFNRGEC
heavy: EVQLVQSGPELKKPGASVKVSCKASGYTFTNYGMNWVRQAPGQGLEWMGWINTYTGETTYAEDFKGRFVFSLDTSVSTAYLQISSLKAEDTAVYYCEREGGVSNWGQGTLVTVSSASTKGPSVFPLAPSSKSTSGGTAALGCLVKDYFPEPVTVSWNSGALTSGVHTFPAVLQSSGLYSLSSVVTVPSSSLGTQTYICNVNHKPSNTKVDKKVEPKSCDKTHTC
modifications: C-terminal Cys linked through maleimide to one arm of a 40,000 MW four-armed PEG (Sunbright PTE-400MA)
- Average IC50 fB Activation (pM), TR-FRET, 50 pM fD (human factor D [2]): 14.8 pM

B4: AFD.v1 (VL-D28S) (Fab, V domains shown)
VH: EVQLVQSGPELKKPGASVKVSCKASGYTFTNYGMNWVRQAPGQGLEWMGWINTYTGETTYADDFKGRFVFSLDTSVSTAYLQISSLKAEDTAVYYCEREGGVNNWGQGTLVTVSS
VL: DIQVTQSPSSLSASVGDRVTITCITSTSIDDDMNWYQQKPGKVPKLLISGGNTLRPGVPSRFSGSGSGTDFTLTISSLQPEDVATYYCLQSDSLPYTFGQGTKVEIKR
notes: Fab variant of aFD.WT
- Kd (human factor D [3]): ≤ 0.01 nM

B5: AFD.v14.C (Cys-modified AFD.v14 variant, Fab-C) (Fab, V domains shown)
VH: EVQLVQSGPELKKPGASVKVSCKASGYTFTNYGMNWVRQAPGQGLEWMGWINTYTGETTYAEDFKGRFVFSLDTSVSTAYLQISSLKAEDTAVYYCEREGGVSNWGQGTLVTVSS
VL: DIQVTQSPSSLSASVGDRVTITCITSTSIESDMNWYQQKPGKVPKLLISGGNTLRPGVPSRFSGSGSGTDFTLTISSLQPEDVATYYCLQSDSLPYTFGQGTKVEIKR
- Average IC50 fB Activation (pM), TR-FRET, 125 pM fD (human factor D [1]): 72 pM

B6: AFD.v13 (SIESD.N103Q; VL-D28S:D30E:D31S VH-D62E VH-N103Q) (Fab, V domains shown)
VH: EVQLVQSGPELKKPGASVKVSCKASGYTFTNYGMNWVRQAPGQGLEWMGWINTYTGETTYAEDFKGRFVFSLDTSVSTAYLQISSLKAEDTAVYYCEREGGVQNWGQGTLVTVSS
VL: DIQVTQSPSSLSASVGDRVTITCITSTSIESDMNWYQQKPGKVPKLLISGGNTLRPGVPSRFSGSGSGTDFTLTISSLQPEDVATYYCLQSDSLPYTFGQGTKVEIKR
notes: Fab variant of aFD.WT
- Kd (human factor D [3]): 0.06 nM

B7: AFD.v7 (TM.D92E; VL-D30E:D31S VH-D62E VL-D92E) (Fab, V domains shown)
VH: EVQLVQSGPELKKPGASVKVSCKASGYTFTNYGMNWVRQAPGQGLEWMGWINTYTGETTYAEDFKGRFVFSLDTSVSTAYLQISSLKAEDTAVYYCEREGGVNNWGQGTLVTVSS
VL: DIQVTQSPSSLSASVGDRVTITCITSTDIESDMNWYQQKPGKVPKLLISGGNTLRPGVPSRFSGSGSGTDFTLTISSLQPEDVATYYCLQSESLPYTFGQGTKVEIKR
notes: Fab variant of aFD.WT; also called TM.D92E (AFD.v7)
- IC50 (nM) AP Hemolysis (rabbit erythrocytes, C1q-depleted human serum) (human factor D [4]): 3.8 nM
- Kd (human factor D [3]): ≤ 0.01 nM

B8: AFD.v2 (VL-D30E) (Fab, V domains shown)
VH: EVQLVQSGPELKKPGASVKVSCKASGYTFTNYGMNWVRQAPGQGLEWMGWINTYTGETTYADDFKGRFVFSLDTSVSTAYLQISSLKAEDTAVYYCEREGGVNNWGQGTLVTVSS
VL: DIQVTQSPSSLSASVGDRVTITCITSTDIEDDMNWYQQKPGKVPKLLISGGNTLRPGVPSRFSGSGSGTDFTLTISSLQPEDVATYYCLQSDSLPYTFGQGTKVEIKR
notes: Fab variant of aFD.WT; also called D30E (AFD.v2)
- Kd (human factor D [3]): ≤ 0.01 nM
- loss in binding (human factor D [5]): ~20%
- loss in binding (human factor D [6]): ~40%
